# Experimental data from PMC3128119.
# T1: SmeT (UniProt Q8KLP4 1-219)
# T1 sequence: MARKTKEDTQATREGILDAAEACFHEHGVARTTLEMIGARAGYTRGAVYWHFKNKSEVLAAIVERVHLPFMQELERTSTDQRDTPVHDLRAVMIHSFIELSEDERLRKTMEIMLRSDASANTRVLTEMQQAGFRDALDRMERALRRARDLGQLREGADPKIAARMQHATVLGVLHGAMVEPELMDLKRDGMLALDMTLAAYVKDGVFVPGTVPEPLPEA
# B1: 30-bp smeT operator (dsDNA)
# DNA 1: GTTTACAAACAAACAAGCATGTATGTATAT
# DNA 2: ATATACATACATGCTTGTTTGTTTGTAAAC
# Target: T1, SmeT
# Assay: EMSA; 0.2 uM SmeT, 2 nM DNA, no triclosan, 10 mM MgCl2; EMSA: 10 mM Tris-HCl pH 7.2, 50 mM KCl, 10 mM MgCl2, 1 mM EDTA, 50 ug/ml BSA, 1 mM DTT, 5% glycerol, 100 ug/ml poly(dI-dC), room temperature 20 min (+15 min with biocide); 6% gel at 4 C
# Conditions: protein: recombinant; tags: none stated after intein-CBD self-cleavage (pTYB1); chain copies: 2; label: 5' 32P; blunt
binder,measurement,value
B1,binding result,binds
